The results in this text go back to paper PMC5336275.

The assay deals with Thermus thermophilus SoxB (Thermus thermophilus) (UniProt Q72IT0). The experiment in a line: ITC; SoxB (50 μM) in the cell, SoxYZ as the titrant; 25°C; 30 mM Tris/HCl pH 8.0, 200 mM NaCl; two replicate experiments fitted together to a hetero-association model (A + B ↔ AB). A general note: Isothermal titration calorimetry measures the heat released or taken up as one component is titrated into another.

By Kd is commonly meant a measure of binding affinity in units of concentration.

Chain of UniProt Q72IT0 (Q72IT0 entry or part of it): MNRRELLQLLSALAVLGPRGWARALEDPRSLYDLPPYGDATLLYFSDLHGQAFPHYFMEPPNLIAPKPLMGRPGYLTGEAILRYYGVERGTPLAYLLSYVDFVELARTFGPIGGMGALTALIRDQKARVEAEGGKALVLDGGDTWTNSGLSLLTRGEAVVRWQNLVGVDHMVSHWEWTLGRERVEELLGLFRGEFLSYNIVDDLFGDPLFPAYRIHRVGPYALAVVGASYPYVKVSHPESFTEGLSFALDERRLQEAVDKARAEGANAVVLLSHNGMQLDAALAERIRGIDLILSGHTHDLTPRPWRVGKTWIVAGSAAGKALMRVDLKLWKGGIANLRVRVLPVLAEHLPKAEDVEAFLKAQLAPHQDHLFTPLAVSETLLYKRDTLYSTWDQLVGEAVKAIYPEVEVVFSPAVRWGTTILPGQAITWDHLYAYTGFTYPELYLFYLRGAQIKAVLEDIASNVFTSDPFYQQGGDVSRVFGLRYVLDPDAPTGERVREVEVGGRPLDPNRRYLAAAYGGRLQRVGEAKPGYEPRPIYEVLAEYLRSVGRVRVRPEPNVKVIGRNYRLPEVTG

For “Thermus thermophilus SoxY_(C151E)Z variant (from UniProt Q72IS6 1-152; Q72IS7 1-108) (complex)”, the dissociation constant (Kd) amounted to 10 µM and the dH is -5 kcal/mol.

As to “Thermus thermophilus SoxYZ-S-sulfonate (from UniProt Q72IS6 1-152; Q72IS7 1-108) (complex)”, the Kd was determined as 30 µM and the dH is -2 kcal/mol.
